This is an account of results in the nanobody polyreactivity screen of Harvey et al. (2022).

The nature of the series: yeast display, Sf9 membrane polyspecificity reagent, FACS + sequencing; frameworks hold sequencing errors. In outline:
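A synthetic nanobody library was expressed on Saccharomyces cerevisiae BJ5465 by galactose induction for 36–48 hours. The library was stained for 1 hour at 4 °C with 10% biotinylated, detergent-solubilized Sf9 membrane reagent and enriched with streptavidin microbeads before FACS. Low and high (top ~1%) gates were set on anti-HA fluorescence for expression and streptavidin fluorescence for reagent binding, and each polyreactivity label reflects the gate of origin.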
“QVQLVESGGGLVQAGGSLRLSCAASGSIFSTYVMGWYRQAPGKERELVAAITVSVGSTYYADSVKGRFTISRDNAKNTVYLQMNSLKPEDTAVYYCAAYGGTGYPFDAYYHDYDYWGQGTQVSVSS”: the “polyreactivity (PSR sort gate)” value is on record as “low polyreactivity”.
As for “QVQLVESGGGLVQAGGSLRLSCAASGSTLQYYDMGWYRQAPGKERELVAAITWSTGTTYYADSVKGRFTISRDNAKNTVYLQMNSLKPEDTAVYYCAVDSYYRATYTNRYDYWGQGTQVTVSS”, the “polyreactivity (PSR sort gate)” value is reported as “low polyreactivity”.
As to “QVQLVESGGCLVQAGGSLRLSCAASGSTFGLYAKGLYRQAPGTEREFVAAITSTGGSTYFADSVKGRFTISRDNAQNTVYLQLNSLKPEDTAVYDSYADFFVWRYPHYLIFGYWGQGTQVTVSS”, the “polyreactivity (PSR sort gate)” value is “low polyreactivity”.
For “QVQLVESGGGLVQAGGSLRLSCAASVSTLRYYAMGWYRQAPGKERELVAAISYSGGSTYYADSVKGRFTISRDNAKNTVYLQMNRLKPEDTAVYYCNAEWGWRRYGSSYVYWGQGTQVTVSS”, the “polyreactivity (PSR sort gate)” value is “high polyreactivity”.
In the case of “QVQLVESGGGLVQAGGSLRLSCAASGRTYVRDTMGWYRQAPGQERQLVAAITWSGGSTYYADSVKGRFTISRDNAKNTVYLQMNSLKPEDTAVYYCARRYSPHTSVSYYSWGQGNQVTVSS”, the “polyreactivity (PSR sort gate)” value is listed as “high polyreactivity”.
For the sequence “QVQLVESGGGLVQAGGSLRLSCAASGRIFAQYAMGWYRQAPVKERELVAGIDRRGGSTYYADSVKGRFTISRDNAKNTVYLQMNSLKPEDTAVYYCAAYGTTGVYRGPGYDYWGQATQVTVSS”, the “polyreactivity (PSR sort gate)” value was “low polyreactivity”.
For “QVQLVESGGGLVQAGGSLRLSCAASGRTFWYYAMGWYRQAPGKERELVAYADSVKGRFTISRDNAKNTVYLQMNSLIPEDTAVYYCAVGPVVWFSSSLYYTDYYYWGQGTQVTVSS”, the “polyreactivity (PSR sort gate)” value was “low polyreactivity”.
Turning to “QVQLVESGGGLVQAGGSLRLSCAASGRTFVLYTMGWYRQAPGKERELVAVGSTYYADSVKGRFTISRDNAKNTVYLQMNSLIAEDTAVYYCAADIHWYGYYYWGLGTQVTVSS”, the “polyreactivity (PSR sort gate)” value is reported as “high polyreactivity”.
As for “QVQLVDSGGGLVQAGGTLRLSCAASGFTFIYYAMGWYRQAPGKERELVAAISASGGSTYYADSVKGRFTISRDNAKNTVYLQMNSLKPEDTAVYYCNKYWRKPPAGGYYYWGQGTQVTVSS”, the “polyreactivity (PSR sort gate)” value was “high polyreactivity”.
With “QVQLVESGGGLVQAGGSLRLSCAASGRIQYNAMGWYSQAPGKEREFGAAISWSGGTTYYADSVKGRFTISRDTAKNTVYLQMNSLKPEDTAVYYCATPYTHWGQGTQVTVSS”, the “polyreactivity (PSR sort gate)” value is “high polyreactivity”.
As for “QDQLVESGGGLVQAGGSLRLSCAASGSIIFFYVMGWYRQAPGKERELVAAITYSGGSTFYADSVKGRFTISRDNAKNSVYLQMNSLKPEDTAVNYCAAEYGQWTPLDPYNHWGQGTQVNVSS”, the “polyreactivity (PSR sort gate)” value was “low polyreactivity”.
For the sequence “QVQLVESGGGLVQAGGSLRLSCAASGSIFSFNAMGWYRQAPGKERELVAAISWRGASTYYADSVKGRFTISRDNAKNTVYLQMNSLKPEDTAVYYCAAESTFILQYSYIYYDGHYDYWGQGTQVTVSS”, the “polyreactivity (PSR sort gate)” value was “low polyreactivity”.
As for “QVQLVESGAGLVQAGGSLRLSCAASGRIFHFYAMGWYRQAPGKERELVAAITSRTGNTYYADSVKGRFTISRDNAKNTVYLQMNSLKPEDTAVYYCAAKLVNALLHYRNWNHNNYWGQGTQVTVSS”, the “polyreactivity (PSR sort gate)” value is given as “low polyreactivity”.
On to “QVQLVESGGGLVQAGGSLRLSCAASGYTFPTYAMGWYRQAPGKERELVAAISIDDGITYYADSVKGRFTISRDNAKNTVYLQMNSLKPEDTAVYYCAADVGIEYDYWGQGTQVTVSS”, for which the “polyreactivity (PSR sort gate)” value is reported as “high polyreactivity”.
With “QDQLVESGGGLVQAGGSLRLSCAASGSTFNNNALGWYRQAPGKERELVAAISYTGGSTYYADSVKGRFTISRDNAKNSVYLHMNSLKPEDTAVYYCARRQARKFYYWGQGTQVTVSS”, the “polyreactivity (PSR sort gate)” value is “high polyreactivity”.
Turning to “QVQLEESGGGLVQGGCSLRLSCAGSGSIFIQYDMGWYRQAPVIERELVATIRSGDSTTYADSVKGRFTISRDNAKNTVYLQMNSLKPEDTAVYYCAKDYRLDYDYDYWGQGTQVTVSS”, the “polyreactivity (PSR sort gate)” value is listed as “low polyreactivity”.
Regarding “QVQLVESGGGLVQAGGILRLSCAASGSTFYYNTMGWYRQAPGKERELVAAISWSGGSTYYADSVKGRFTISRDNAKTTVYLQINSLKPEDTAVYYSNKLRHISRTLYGYWGQGTQVTVSS”, the “polyreactivity (PSR sort gate)” value is on record as “high polyreactivity”.
On to “QVQLVESGGGLVKAGGSLRLSCAASGGTFPLYAMGWYRQAPGKERELVAAIRWSGGRTYYADSVKGRFTISRDNAKNTVYLQMNSLKPEDTAVYYCSADYDDGWGYDYWGQGTQVTVSS”, for which the “polyreactivity (PSR sort gate)” value is listed as “high polyreactivity”.
With “QVQLVESGGGLVQAGGSLRLSCAASGRIFDDNTMGWYRQAPGKEREVVAAISVSGGRTYYADSVKGRFTISRDNAKNTVYIQMNSLKPEDTAVYYCNARLGPFWDYRLKNGTHDYWGQGTQVTVAS”, the “polyreactivity (PSR sort gate)” value is given as “high polyreactivity”.
As for “QVQLVESGGGLVQAGGSLRLSCAASGSTFLSYAMGRYRQAPGKERELVAAITGSGGNTYYADSVKGRFTISRDNAKNSVYLQMNSLKPEDTAVYYCAADTSYWYDYYIDYVGYYYWGQGTQVTVSS”, the “polyreactivity (PSR sort gate)” value is listed as “high polyreactivity”.
“QVQLVDSGGVLVQAGGSLRLSCAASGGTFRTYAMGWYRQAPGKERELVAAITWRGGSTYYADSVKGRFTISRDNAKNTVYLQMNSLKPEDTAVYNCAARVAYQWSFYKYDYWGQGTQVTVSS”: the “polyreactivity (PSR sort gate)” value is reported as “high polyreactivity”.
Take “QVQLVESGGGLVQAGGRLRLSCAASGRICIIYALGWYRQAPGKEREFVAAITSSGGSTYYADSVKGRFTISRDNAKNTVYLQMNSLTPEDTAVYYCAARVTKLRTSSLRGYWGQGTQVTVSS”: the “polyreactivity (PSR sort gate)” value is given as “high polyreactivity”.
On to “QVQLVESGGGLVQAGGSLRLSCAASGRIFYWYAMGWYRKAPGKERELVAAIIWSGGSSYYADSVKGRFTISRDNAKNTVYLQMNSLKPEDTAVYYSAADRILEMGYWGQGTQVTVSS”, for which the “polyreactivity (PSR sort gate)” value is on record as “low polyreactivity”.
On to “QVQLVESGGGLVQAGGSLRLSCAASGRISKIYAMGWYRQAPGKERELVAAINSGGSTNYADSVKGRFTISRDNAKNTVYLQLNSLKPEDTAVYYCAATFKSGMDYWGQGTQVTVSS”, for which the “polyreactivity (PSR sort gate)” value is given as “high polyreactivity”.
As for “QVQLVESGGGLVQAGGSLRLSCAASGITFPRYTMGWYRQAPGTERELVAAISSGGSTYYADSVKGRFTISRDNAKNTVYLQMNSLKPEDTAVYYCNAEVPYWYYIYDYWGQGTQVTVSS”, the “polyreactivity (PSR sort gate)” value is recorded as “high polyreactivity”.
On to “QVQLVESGGGLVQAGGSLRLSCAASGLTFYYYAMGWYRQAPGKERELVATISSGGGRTYADSVKGRFTISRDNAKNTVYLQMNSLKPEDTAVYYCAVRNTKSYWFGYWGQGTQVTVSS”, for which the “polyreactivity (PSR sort gate)” value is “high polyreactivity”.
Turning to “QVQLVESGGGLVQARGSLRLSSSASGSIFKYYAMGRYRHAPGKESELGAAISYSGGTTYYADSVKGRFTISRDNAKNTVYLQMNSLKPEDTAVYDCNARYPNFVVRGYAPYDYWGQGSQVTVSS”, the “polyreactivity (PSR sort gate)” value was “low polyreactivity”.
With “QVQLVESGGGLVQAGGSLRLSSAASGRTFGRYAMGWYRQAPGKERELVAAITRSGSSTYYADSVKGRFTISRDNAKNTVYLQMNSLKPEDTAVYYCAALYGPFYSTGEYWGQGTQVTVSS”, the “polyreactivity (PSR sort gate)” value is given as “high polyreactivity”.
On to “QVQLVESGGGLVQAGGSLRLSCAASGSTFWIYAMGWYRQPPGKERELVAAISWSTGRTYYADSVKGRFTISRDNAKNTVYLQMNSLKPEDTAVYYCNAGPQHNTLKLFYYWGQGTQVTVSS”, for which the “polyreactivity (PSR sort gate)” value is recorded as “low polyreactivity”.
Take “QVQLVESGGGLVQAGGSLRLSCAASGRTLSGYAMGWYRQAPGKERELVAAISRRGGRTYYADSVKGRFTISRDNAKNTVYLQMNSLKPEDTAVYYCAAQVYTKTGDWQFYYWGQGTQVTVSS”: the “polyreactivity (PSR sort gate)” value is listed as “high polyreactivity”.
With “QVQLVESGGGLVQAGGSLRLSCAASGSTFGSYARGWYRPAPGKERELVAAISRTGGSTRYADSVKGRFTISRDNAQNSVYFQMNSLKPEDSAVYYCNARLSSYSTIRGVYWGQGTQVTVSS”, the “polyreactivity (PSR sort gate)” value is given as “high polyreactivity”.
The same measure for “QVQLVESGGGLVQAGGSLRLSCAASGSTFRANAMGWYRQAPGKERELVAAIRWRGVGTYYADSVKGRFTISRDNAKNTVYLQMNSLKPEDTAVYYCAARRLGRSGNGSWGQGTQVTVSS”: “high polyreactivity”.
For the sequence “QVQLVESGGGLVQAGGSLRLSCAASGSTFHKYAMGWYRQAPGKEREFVAAISWSGGSTYYADSVKGRFTISRDNAKNTVYLQMNSLKPEDTAVYYCAAKGGVSRARWRSIFWHDYWGQGTQVTVSS”, the “polyreactivity (PSR sort gate)” value is listed as “high polyreactivity”.
Take “QVQLVESGGGLVQAGGILRLSCAASGRIFNGYAMGWYRQAPGKERELVAAITSGGRTYADSVKGRFTISRDNAKNTVYLQMYSLKPEDTAVYYCAADAGRILFSGYDYWGQGTQVTVSS”: the “polyreactivity (PSR sort gate)” value is on record as “low polyreactivity”.
Take “QVQLVESGGGLVQAGGSLRLSCAASGFIFRRYAMGSYRQAPGKERELVAAISGSGGRTYYADSVKGRFTISRDNAKNTVYLQMNSLKPEDTAVYYCAADHGSLLYDYWGQGTQVTVSS”: the “polyreactivity (PSR sort gate)” value is on record as “high polyreactivity”.
For the sequence “QVQLVDSGGGLVQAGGSLRLICAASGRIFIYNAMGWYRQAPGKERELVAAITRGGNTNYADSVKGRFTISRDNAKNTVYLQMNSLKPEDTAVYYCAAAIRYGSRHRGYWGQGTQVTVSS”, the “polyreactivity (PSR sort gate)” value was “low polyreactivity”.
The same measure for “QVQLVESGGGLVQAGGSLRLSCAASGSNSFLYTMRWYRQAPGKERELVAAITGSTASTYYADSVKGRFTISRDNAKNTVYLQMNSLKPEDSAVYYWAAYWYAEGYWVSRDYWGQGTQVTVSS”: “low polyreactivity”.
For the sequence “QVQLVESGGGLVQAGGSLRISCAASGIIFYTYVMGWYRQAPGKEREFVAGISTSGGRTDYADSVKGRFTISRDNAKNTVYLQMNSLKPEDTAVYYCNADYWQWYSYWYDYWGQGTQVTVSS”, the “polyreactivity (PSR sort gate)” value is “high polyreactivity”.
For “QVQLVESGGGLVQAGGSLRLSCAASGSIFSPNDMGWYRQAPGKERELVAAITSAGSTYYADSVKGRFTISRDNAKNTVYLQMNSLKPEDTAVYYCAATYISVTDYAYFPLWYGYWGQGTQVTVSS”, the “polyreactivity (PSR sort gate)” value is given as “low polyreactivity”.
“QVQLVESGGGLVQAGGSLRLSCAASGRIFPYYAMGWYRQAPGKERELVATISSGGRTNYADSVKGRFTMSRDNAKNTVYVQMNSLKPEDTAVYYCAADYRTPTDVEYDYWGQGTQVTVSS”: the “polyreactivity (PSR sort gate)” value is on record as “high polyreactivity”.
As to “QVQLVESGGGLVQAGGSLRLSCAASGFIFARYAMGWYRQAPGKERELVATISYTGGRRYYADSVKGRFTISRDHANNTVYLQINSLKPEDTAVYYVNAVYSYDRQRHEYWGQGTQVTVSS”, the “polyreactivity (PSR sort gate)” value is on record as “high polyreactivity”.
